The record followed here is patent US20260265410A1 (UNIVERSITY OF FLORIDA RESEARCH FOUNDATION, published 2026).

The target in assay [1] is T1, human PTPRG on the cell surface (U937 cells, HEL cells) (human, UniProt P23470 20-1445).
T1 construct: Endogenous PTPRG of human AML cell lines
The assay is described as follows: flow cytometry on whole HEL cells, screen of the 28 clones (Ctrl row = 0); PTPRG is named as the antigen on HEL cells only in the later examples. For orientation: A flow cytometer gives signals particle by particle.

The target of assay [2] is T1, human PTPRG on the cell surface (U937 …). The assay is described as follows: flow cytometry on whole U937 cells, screen of the 28 clones (Ctrl row = 0); PTPRG is named as the antigen on U937 cells only in the later examples.
Assay [3] concerns the target T2, mouse PTPRG ECD (amino acid residues 20-733 of mouse PTPRG) fused to hFc (mouse, UniProt Q05909 20-733).
T2 construct: Produced in-house; also called mPTPRG-ECD; Mouse PTPRG-ECD-hFc; not shown: human Fc (hFc)
T2 sequence: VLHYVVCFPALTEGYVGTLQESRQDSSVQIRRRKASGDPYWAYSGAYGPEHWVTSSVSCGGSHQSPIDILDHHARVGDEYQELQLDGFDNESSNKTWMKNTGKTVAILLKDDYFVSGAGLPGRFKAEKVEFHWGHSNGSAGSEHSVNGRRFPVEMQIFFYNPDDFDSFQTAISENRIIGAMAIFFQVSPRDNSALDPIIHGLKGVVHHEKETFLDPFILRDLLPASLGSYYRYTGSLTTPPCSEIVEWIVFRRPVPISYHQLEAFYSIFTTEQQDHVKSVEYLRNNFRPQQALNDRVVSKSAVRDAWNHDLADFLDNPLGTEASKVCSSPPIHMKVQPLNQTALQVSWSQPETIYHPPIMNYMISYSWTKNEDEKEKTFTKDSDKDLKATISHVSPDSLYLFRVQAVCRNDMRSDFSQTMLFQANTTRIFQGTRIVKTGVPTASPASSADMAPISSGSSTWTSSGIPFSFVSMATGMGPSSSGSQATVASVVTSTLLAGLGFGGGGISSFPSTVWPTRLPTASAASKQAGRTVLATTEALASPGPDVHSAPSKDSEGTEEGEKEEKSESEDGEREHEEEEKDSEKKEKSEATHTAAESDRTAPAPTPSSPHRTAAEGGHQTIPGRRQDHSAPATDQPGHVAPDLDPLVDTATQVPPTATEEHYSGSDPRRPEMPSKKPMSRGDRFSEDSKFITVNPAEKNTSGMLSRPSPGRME
The assay is described as follows: ELISA, one condition per Fab and antigen; y axis 0 to 1.8 without name or unit.

Assay [4] addresses T3, C-terminal domain (CTD) of human PTPRG (amino acid residues 349~736 of human PTPRG) (human, UniProt P23470 349-736).
T3 construct: also called hPTPRG-CTD; human PTPRG carboxyl domain
T3 sequence: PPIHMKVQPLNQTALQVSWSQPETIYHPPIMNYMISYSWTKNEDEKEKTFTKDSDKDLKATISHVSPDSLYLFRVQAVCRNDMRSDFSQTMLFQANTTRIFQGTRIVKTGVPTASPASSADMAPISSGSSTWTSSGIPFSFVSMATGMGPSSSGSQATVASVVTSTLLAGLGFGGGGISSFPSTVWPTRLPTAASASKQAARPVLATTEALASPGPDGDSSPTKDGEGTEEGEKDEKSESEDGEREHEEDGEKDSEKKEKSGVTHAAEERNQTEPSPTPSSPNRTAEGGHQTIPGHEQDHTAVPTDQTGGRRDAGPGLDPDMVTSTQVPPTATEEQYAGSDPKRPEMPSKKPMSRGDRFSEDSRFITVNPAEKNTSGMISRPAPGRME
The description is as above.

T1 sequence (P23470 20-1445): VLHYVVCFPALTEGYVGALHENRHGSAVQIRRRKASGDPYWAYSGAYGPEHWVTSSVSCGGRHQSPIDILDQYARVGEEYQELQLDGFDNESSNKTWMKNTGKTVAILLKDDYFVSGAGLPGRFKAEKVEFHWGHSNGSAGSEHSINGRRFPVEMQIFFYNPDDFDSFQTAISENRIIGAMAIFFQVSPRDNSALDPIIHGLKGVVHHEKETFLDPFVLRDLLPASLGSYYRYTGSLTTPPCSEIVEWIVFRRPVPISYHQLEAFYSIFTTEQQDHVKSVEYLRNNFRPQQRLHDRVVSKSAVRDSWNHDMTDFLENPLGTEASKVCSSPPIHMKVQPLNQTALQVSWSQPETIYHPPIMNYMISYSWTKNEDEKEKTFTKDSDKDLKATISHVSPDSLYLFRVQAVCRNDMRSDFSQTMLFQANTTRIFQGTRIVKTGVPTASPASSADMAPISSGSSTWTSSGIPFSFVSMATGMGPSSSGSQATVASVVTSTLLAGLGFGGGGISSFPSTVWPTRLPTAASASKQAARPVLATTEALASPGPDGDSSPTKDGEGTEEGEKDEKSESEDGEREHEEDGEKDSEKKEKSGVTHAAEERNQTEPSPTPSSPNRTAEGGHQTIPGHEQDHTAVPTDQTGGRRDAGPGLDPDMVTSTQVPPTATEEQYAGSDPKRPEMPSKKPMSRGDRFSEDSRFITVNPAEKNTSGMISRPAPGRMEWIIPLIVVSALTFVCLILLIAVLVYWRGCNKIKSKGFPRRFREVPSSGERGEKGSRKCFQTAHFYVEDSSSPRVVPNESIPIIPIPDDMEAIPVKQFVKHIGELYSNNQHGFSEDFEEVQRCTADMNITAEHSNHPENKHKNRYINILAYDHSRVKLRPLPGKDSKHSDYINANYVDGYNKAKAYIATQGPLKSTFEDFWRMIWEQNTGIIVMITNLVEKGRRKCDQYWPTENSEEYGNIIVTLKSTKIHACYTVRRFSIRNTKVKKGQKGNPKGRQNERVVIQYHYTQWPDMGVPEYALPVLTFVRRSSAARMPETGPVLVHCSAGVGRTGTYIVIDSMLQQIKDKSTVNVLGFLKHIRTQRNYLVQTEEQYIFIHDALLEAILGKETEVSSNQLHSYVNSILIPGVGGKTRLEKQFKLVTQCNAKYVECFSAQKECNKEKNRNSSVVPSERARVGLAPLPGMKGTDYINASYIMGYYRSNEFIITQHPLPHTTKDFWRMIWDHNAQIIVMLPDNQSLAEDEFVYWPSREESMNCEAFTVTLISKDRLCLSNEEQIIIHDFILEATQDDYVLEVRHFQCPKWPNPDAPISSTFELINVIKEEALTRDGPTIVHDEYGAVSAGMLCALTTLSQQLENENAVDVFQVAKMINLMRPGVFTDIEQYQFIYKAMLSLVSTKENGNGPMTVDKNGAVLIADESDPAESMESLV

B1: Fab_240 (Fab, V domains shown)
VH: AQSLEESGGRLVTPGTPLTLTCTVSGFSLSAYAMSWVRQAPGKGLEWIGIISSYGNTYYATWAKGRFTISKTSTTVDLKITSPTTEDTATYFCARGDYGNGMSIWGPGTLVTVSS
VL: SFVLTQPASVQVNLGQTVSLTCTADTLSRRYASWYQQKPGQAPVLLIYRDTRRPSGVPDRFSGSSSGNTATLTISGAQAGDEADYYCATSDGSGSSYQCVFGGGTQLTVTG
notes: Chimeric rabbit/human Fab; also called P240; clone 240
As to B1, the “flow cytometry binding value (the table prints no name or unit)” value turned out to be 17.5 in assay [1] and 92.7 in assay [2]. For the same molecule, the binding result is reported as “binds” in assay [3] and “no binding” in assay [4].

B2: Fab_2861 (Fab, V domains shown)
VH: AQSVEESGGRLVTPGTPLTLTCTVSGIDLSSYAMGWVRQAPGKGLEYIGIIVSDGRTYYTSWAKGRFTISKTSTTVDLKMTSPTTEDTATYFCAREGYGYYFDIWGPGTLVTISS
VL: SFVLTQPASVQVNLGQTVSLTCTADTLSRRYASWYQQKPGQAPVLLIYRDTSRPSGVPDRFSGSSSGNTATLTISGAQAGDEADYYCATADGSGSSYQFVFGGGTQLTVTG
notes: Chimeric rabbit/human Fab; also called P2861; clone 2861
With B2, the “flow cytometry binding value (the table prints no name or unit)” value in assay [1] was determined as 14.5; in assay [2] it was 85. Further, the figures for the binding result in assay [3] and in assay [4] were “binds” and “no binding”, respectively.

B3: Fab_3208 (Fab, V domains shown)
VH: AQSVKESEGGLFKPTDTLTLTCTVSGFSLSSYAISWVRRAPGNGLEWIGAIAGYGDAYYASWAKSRSTITRNTNENTVTLKMTSLTAADTATYFCARDDYNVDTGIWGPGTLVTISS
VL: SFVLTQPASVQVNLGQTVSLTCTADTLSRRYASWYQQKPGQAPVLLIYRDTSRPSGVPDRFSGSSSGNTATLTISGAQAGDEADYYCATGDGSGSSYQYVFGGGTQLTVTG
notes: Chimeric rabbit/human Fab; also called P3208; clone 3208
B3: the “flow cytometry binding value (the table prints no name or unit)” value was 17.1 in assay [1] and 92.7 in assay [2]. Further, the binding result in assay [3] is on record as “binds”; in assay [4] it was “no binding”.

B4: Fab_2653 (Fab, V domains shown)
VH: QEQLEESGGRLVTPGTPLTLTCTASGFSLSTYAMTWVRQAPGKGLEWIGIIDRYGYTYYANWARGRFTISKTSTTVDLKITSPTTEDTATYFCARDLPGYNVGTYFNMWGPGTLVTISS
VL: SFVLTQPASVQVNLGQTVSLTCTADTLSRRYASWYQQKPGQAPVLFIYRDTSRPSGVPDRFSGSSSGSTATLTISGAQAGDEADYYCATSDGSGSSYQFVFGGGTQLTVTG
notes: Chimeric rabbit/human Fab; also called P2653; clone 2653
On to B4, for which the “flow cytometry binding value (the table prints no name or unit)” value in assay [1] stood at 13.6; in assay [2], 91.4. Besides, the binding result in assay [3] is on record as “binds”; in assay [4], “no binding”.

B5: Fab_2388 (Fab, V domains shown)
VH: QEQLKESGGGLFKPTDTLTLTCTVSGFSLSNYAISLVRQPPGNGLEWIGAIDAGGVTYYASWAKSRSTITRNTNLNTVTLKMTSLTAADTATYFCAREEWSSSSGLYFSIWGPGTLVTISS
VL: SFVLTQPASVQVNLGQTVSLTCTADTLSRRYASWYQQKPGQAPVLLIYRDTSRPSGVPDRFSGSSSGNTATLTISGAQAGDEADYYCATSDGSGSSYLYVFGGGTQLTVTG
notes: Chimeric rabbit/human Fab; also called P2388; clone 2388
Consider B5, for which the results for the “flow cytometry binding value (the table prints no name or unit)” value in assay [1] and in assay [2] were 15 and 90.9, respectively.

B6: Fab_17 (Fab, V domains shown)
VH: AQSLEEFGGRLATPGTPLTLTCTASGFSLGTYSMSWVRQAPGKGLEWIGTIGGRGDAYYASWAKGRFTISRTSTTVDLKMTSLATEDTATYFCVRENYGYAFDIWGPGTLVTISS
VL: SFVLTQPASVQVNLGQTVSLTCTADTLSRRYASWYQQKPGQAPVLLIYRDTSRPSGVPDRFSGSSSGNTATLTISGAQAGDEADYYCATSDGSGSSYQCVFGGGTQLTVTG
notes: Chimeric rabbit/human Fab; also called P17; clone 17
As for B6, the “flow cytometry binding value (the table prints no name or unit)” value in assay [1] is 15.8; in assay [2] it was 87.5. Also, the binding result was “binds” in assay [3] and “no binding” in assay [4].

B7: Fab_28 (Fab, V domains shown)
VH: AQSVEESGGRLVTPGIPLTLTCTVSGFSLNNYAMSWVRQAPGKGLEWIGMIDSGGAAYYATWARGRFTISRTSTTVDLKITSPTTEDTATYFCARELSSLYGAFDPWGPGTLVTVSS
VL: SFVLTQPASVQVNLGQTVSLTCTADTLSRRYASWYQQKPGQAPVLLIYRDTSRPSGVPDRFSGSSSGNTATLTISGAQAGDEADYYCATSDGSGSSYQCVFGGGTQLTVTG
notes: Chimeric rabbit/human Fab; also called P28; clone 28
For the molecule B7, the results for the “flow cytometry binding value (the table prints no name or unit)” value in assay [1] and in assay [2] were 15.8 and 87.5, respectively. Besides, the binding result in assay [3] was “binds”; in assay [4] it was “no binding”.

B8: Fab_1707 (Fab, V domains shown)
VH: AQSLEEFGGGLIKPGGTLTLTCTASGFTISSYDMSWVRQAPGSGLEWIGTMAYGGDTYHASWAKSRSTITRDTNLNTVTLKMTSLTVADTATYFCARDVGSGHYYDDMYLWGPGTLVTVSS
VL: SFVLTQPASVQVNFGQTVSLTCTADTLSRRYASWYQQKPGQAPVLLIYRDTSRPSGVPDRFSGSSSGNTATLTISGAQAGDEADYYCATGDGSGSSYNYVFGGGTQLTVTG
notes: Chimeric rabbit/human Fab; also called P1707
As for B8, the “flow cytometry binding value (the table prints no name or unit)” value stood at 16.9 in assay [1] and 92 in assay [2]. Further, the binding result in assay [3] is given as “binds”; in assay [4], “no binding”.

B9: Fab_1187 (Fab, V domains shown)
VH: AQSVEESGGRLVTPGTPLTLTCTVSGIDLSSYAMSWVRQAPGKGLEWIGVIDGSGSTWYANWVKGRFTISKTTTVDLKITSPTTEDTATYFCAREDYGSETIDFNIWGPGTLVTVSS
VL: SFVLTQPASVQVNLGQTVSLTCTADTLSRRYASWYQQKPGQAPVLLIYRDTRRPSGVPDRFSGSSSGNTATLTISGAQAGDEADYYCATSDGSGSSYQYVFGGGTQLTVTG
notes: Chimeric rabbit/human Fab; also called P1187; mAb_1187
B9: the “flow cytometry binding value (the table prints no name or unit)” value in assay [1] came to 10.7; in assay [2], 29.3.
